Publication PMC4975651 (Molecular cell, 2016)

Target: ZMYND8-PBP (93-426aa) (human)
Experiment: ITC

Kd: ~5.4 µM
Binder: ARTKQTARKSTGGKA (monomethyl-lysine at K4; acetyl-lysine at K14) [H3K4me1K14ac peptide]
